Values joined by “and” are separate entries in the source; they are usually repeats but may differ in a detail not shown here. Equal values may be shown once. Read-outs that look alike come from different tables or passages of the source.

Data set [1] can be described thus: Emission spectra (emission maximum) of purified aequorin mutants with coelenterazine analogues. Format: physicochemical. An excerpt: In order to detect the inventive aequorin mutants, the use of an instrument capable of detecting flash-type bioluminescence over a wide range of wavelengths is envisaged. For example, a fiber optic sensor collects the bioluminescence signal emitted by the aequorin and transmits it to a grating that directs the beam of light to onto an optical array detector. In one embodiment, the system to acquire the spectra from the flash kinetics of aequorin and obelin luminescence consists of a microtiter plate reader. The optical path of the instrument is replaced with a high collecting efficiency fiber optic bundle. This fiberoptic bundle carries the emitted light into an Oriel Instruments Fixed Imaging Compact Spectrograph, the dispersed light is then fed into an ANDOR cooled CCD detector. See for example the SpectroSystem By Sciencewares, Inc (East Falmouth, Mass.).
Cysteine free aequorin (Mutant S), Y132I Mutant S aequorin, Aeq5 (Mutant S with a cysteine at position 5), and wild type Aequorin were purified and multiple spectra taken and averaged (See FIG. 1). […] Mutant S had emission maximums ranging from 448 nm to 491 nm. Y132I Mutant S has emission maximums ranging from 453 nm to 487 nm. Aequorin 5 had emission maximums ranging from 466 nm to 491 nm. The greatest spread in emission maximum thus far has been between MutS/CTZ i and MutS/CTZ hcp (448 nm, 491 nm, respectively (43 nm range)). […] The greatest spread in emission maxima wavelengths so far with the same coelenterazine is CTZ hcp with Aeq5 (476 nm) and MutS (448 nm) being 28 nm. Also, the maximum spread with the same CTZ's and different aequorins is 19 nm for i, ip, and f.
Mutant S, Mutant S Y132I and Aeq 5 final emission spectrums were the result of the average of three trials. Wild type aequorins final spectrum was the result of two trials. All mutants, except Aeq5, were purified to >95% purity using SDS-PAGE and silver staining. All coelenterazine analogues were diluted to 100 micrograms/ML methanol. Solvent composition, coelenterazine concentration, temperature, and incubation time, were the same for all trials except with N coelenterazine, which required a higher concentration of aequorin than the other coelenterazines to show activity. Concentrations of the different mutants were not identical. Half life determination of Y132I Mut S with coelenterazines i, ip, h, hcp, cp, fcp, f, and native were 23, 0.9, 0.4, 0.2, 0.6, 0.7, 2.6, and 1.2 seconds, respectively.

The conditions of data set [2]: general statement, cited from earlier work.
For data set [3] the following is noted: in solution at 4° C. for over a month; cited from earlier work.
Data set [4] can be described thus: Emission spectra of obelin and obelin mutants with coelenterazine analogues. It counts as physicochemical. Particulars: all coelenterazine analogues. An excerpt:
Obelin mutants C75S/C51/S, C75S/C67, C158S, C151S, and wild type obelin were purified and multiple spectra taken and averaged (See FIG. 20).

B1: wild type aequorin: native recombinant aequorin encoded by SEQ ID NO: 1, purchased commercially (Aqualite from Molecular Probes) (protein, listed as Aequorea victoria)
chain: VKLTSDFDNPRWIGRHKHMFNFLDVNHNGKISLDEMVYKASDIVINNLGATPEQAKRHKDAVEAFFGGAGMKYGVETDWPAYIEGWKKLATDELEKYAKNEPTLIRIWGDALFDIVDKDQNGAITLDEWKAYTKAAGIIQSSEDCEETFRVCDIDESGQLDVDEMTRQHLGFWYTMDPACEKLYGGAVP
Take B1: the emission maximum in data set [1] (over all coelenterazine analogues (i, ip, h, hcp, cp, fcp, f, n, native)) is 472 nm; in data set [1] (over all coelenterazine analogues (i, ip, h, hcp, cp, fcp, f, n, native), listed as Wild type aequorin), “the same emission maxima for all coelenterazines analogues”; in data set [1] (over all coelenterazine analogues (i, ip, h, hcp, cp, fcp, f, n, native), listed as native recombinant aequorin), 472 nm. The “emission wavelength of aequorin” value in data set [2] is recorded as 469-472 nm; in data set [2] (listed as aequorin) it was 469 nm; in data set [2] (listed as recombinant aequorin), 469 nm. Also, in data set [3], the “original activity retained on storage” value was 85%.

B2: Mutant S: aequorin mutant where the three cysteine residues are replaced with serine (positions 145, 152, 180); SEQ ID NO: 4 (protein, listed as Aequorea victoria)
chain: VKLTSDFDNPRWIGRHKHMFNFLDVNHNGKISLDEMVYKASDIVINNLGATPEQAKRHKDAVEAFFGGAGMKYGVETDWPAYIEGWKKLATDELEKYAKNEPTLIRIWGDALFDIVDKDQNGAITLDEWKAYTKAAGIIQSSEDSEETFRVSDIDESGQLDVDEMTRQHLGFWYTMDPASEKLYGGAVP
Consider B2, for which the “spread in emission maximum between CTZ i and CTZ hcp” value in data set [1] (same protein, CTZ i vs CTZ hcp) worked out at 43 nm. Moreover, the emission maximum is 491 nm and 448 nm in data set [1] (with CTZ hcp, listed as MutS); 448 nm in data set [1] (with CTZ i).

B3: Wild type obelin: bioluminescent protein from the marine hydroid Obelia longissima; SEQ ID NO: 6 (protein, listed as Obelia longissima)
chain: MSSKYAVKLKTDFDNPRWIKRHKHMFDFLDINGNGKITLDEIVSKASDDICAKLEATPEQTKRHQVCVEAFFRGCGMEYGKEIAFPQFLDGWKQLATSELKKWARNEPTLIREWGDAVFDIFDKDGSGTITLDEWKAYGKISGISPSQEDCEATFRHCDLDNSGDLDVDEMTRQHLGFWYTLDPEADGLYGNGVP
With B3, the emission maxima in data set [4] came to 469 nm.
